Columns and labels:
Assay in all cases: flow cytometry, transfected 293T cells
[1] = molecular target: T1, muCDH19(44-461)::huCDH19(464-772) with Flag tag (construct H, Hu EC5) (human/mouse chimera)
T1 construct: leader left out; the entry starts at residue 44; also called C137915
T1 chain: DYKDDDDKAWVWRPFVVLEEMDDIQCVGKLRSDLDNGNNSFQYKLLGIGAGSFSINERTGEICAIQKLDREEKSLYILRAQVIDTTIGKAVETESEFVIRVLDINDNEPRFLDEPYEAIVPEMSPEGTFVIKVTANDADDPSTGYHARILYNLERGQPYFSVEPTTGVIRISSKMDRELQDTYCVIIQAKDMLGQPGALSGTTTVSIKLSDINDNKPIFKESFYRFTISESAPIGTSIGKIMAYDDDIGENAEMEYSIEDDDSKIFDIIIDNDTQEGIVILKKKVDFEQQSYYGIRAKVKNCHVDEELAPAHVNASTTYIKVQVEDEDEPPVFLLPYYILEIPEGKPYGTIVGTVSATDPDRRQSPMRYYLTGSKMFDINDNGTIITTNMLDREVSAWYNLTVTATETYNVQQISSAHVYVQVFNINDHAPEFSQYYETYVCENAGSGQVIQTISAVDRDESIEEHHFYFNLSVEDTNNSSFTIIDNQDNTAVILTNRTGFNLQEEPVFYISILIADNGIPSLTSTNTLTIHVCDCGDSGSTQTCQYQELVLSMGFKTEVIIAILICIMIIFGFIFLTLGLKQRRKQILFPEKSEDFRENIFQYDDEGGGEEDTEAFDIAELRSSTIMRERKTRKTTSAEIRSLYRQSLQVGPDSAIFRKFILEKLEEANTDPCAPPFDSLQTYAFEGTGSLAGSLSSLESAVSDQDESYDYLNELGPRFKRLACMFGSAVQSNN
Description: (§1) The experiment included assaying the anti-CDH19 antibodies against mouse Cadherin19 to determine suitability for binning on these human/mouse chimeras.

[2] = molecular target: T2, muCDH19(44-139)::huCDH19(142-249)::muCDH19(248-770) with Flag tag (construct D, Hu EC2) (human/mouse chimera)
T2 construct: leader left out; the entry starts at residue 44; also called C137913
T2 chain: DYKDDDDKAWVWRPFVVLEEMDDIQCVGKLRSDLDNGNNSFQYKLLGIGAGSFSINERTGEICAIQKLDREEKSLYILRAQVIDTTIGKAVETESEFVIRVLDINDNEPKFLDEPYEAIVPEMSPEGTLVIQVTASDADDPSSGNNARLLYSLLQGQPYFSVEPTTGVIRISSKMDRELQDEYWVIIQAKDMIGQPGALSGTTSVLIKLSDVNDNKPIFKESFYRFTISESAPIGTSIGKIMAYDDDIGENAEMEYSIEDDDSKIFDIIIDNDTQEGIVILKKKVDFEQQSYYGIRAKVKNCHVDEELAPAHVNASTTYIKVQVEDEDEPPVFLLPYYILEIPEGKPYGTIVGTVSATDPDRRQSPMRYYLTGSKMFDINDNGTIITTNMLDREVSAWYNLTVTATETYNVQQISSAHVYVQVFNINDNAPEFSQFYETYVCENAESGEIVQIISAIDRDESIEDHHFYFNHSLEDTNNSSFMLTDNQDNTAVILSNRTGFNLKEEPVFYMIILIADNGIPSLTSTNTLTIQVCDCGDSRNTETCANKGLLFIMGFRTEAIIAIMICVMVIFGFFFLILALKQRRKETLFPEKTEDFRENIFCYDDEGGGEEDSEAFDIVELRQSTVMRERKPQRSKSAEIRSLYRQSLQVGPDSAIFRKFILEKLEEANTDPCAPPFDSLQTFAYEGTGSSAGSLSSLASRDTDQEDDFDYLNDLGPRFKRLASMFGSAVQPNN
Description: as §1

[3] = molecular target: T3, muCDH19(44-362)::huCDH19(365-772) with Flag tag (construct G, Hu EC4-5) (human/mouse chimera)
T3 construct: leader left out; the entry starts at residue 44; also called C137917
T3 chain: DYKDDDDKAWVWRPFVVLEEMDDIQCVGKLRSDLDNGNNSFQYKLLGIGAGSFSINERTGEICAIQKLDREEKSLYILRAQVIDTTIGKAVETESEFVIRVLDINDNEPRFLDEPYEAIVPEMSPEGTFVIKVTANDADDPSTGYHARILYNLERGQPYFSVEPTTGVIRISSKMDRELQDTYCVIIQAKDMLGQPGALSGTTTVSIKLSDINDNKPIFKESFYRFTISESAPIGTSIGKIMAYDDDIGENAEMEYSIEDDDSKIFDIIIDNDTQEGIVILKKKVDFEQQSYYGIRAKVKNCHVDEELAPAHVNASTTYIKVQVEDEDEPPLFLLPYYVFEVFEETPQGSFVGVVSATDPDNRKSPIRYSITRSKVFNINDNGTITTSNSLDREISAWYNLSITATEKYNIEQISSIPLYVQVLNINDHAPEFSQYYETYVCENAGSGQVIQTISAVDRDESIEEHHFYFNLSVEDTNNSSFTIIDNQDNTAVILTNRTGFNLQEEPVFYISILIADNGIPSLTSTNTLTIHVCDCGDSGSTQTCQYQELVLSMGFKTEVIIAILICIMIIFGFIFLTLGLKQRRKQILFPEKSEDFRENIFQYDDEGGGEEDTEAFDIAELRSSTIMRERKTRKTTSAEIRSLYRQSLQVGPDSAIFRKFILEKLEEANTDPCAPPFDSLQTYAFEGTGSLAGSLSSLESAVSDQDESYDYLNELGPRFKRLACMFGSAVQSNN
Description: as §1

Measured: binding result

B1: anti-CDH19 antibody 2G6 (Ab ID 13588) (antibody, human IgG1, lambda, V domains shown)
VH: QVQLVESGGGVVQPGRSLRLSCAASGFTFSSYGMHWVRQAPGKGLEWVAFIWYDGSNKYYADSVKDRFTISRDNSKNTLYLQMKSLRAEDTAVYYCARRAGIIGTIGYYYGMDVWGQGTTVTVSS
VL: SYELTQPPSVSVSPGQTASITCSGDRLGEKYTCWYQQRPGQSPLLVIYQDTKRPSGIPERFSGSNSGNTATLTISGTQAMDEADYYCQAWDSSTVVFGGGTKLTVLG
notes: Bin 4
binds: all assays above

— patent US20220127354A1 (Amgen, published 2022)
